Changes are numbered by the printed parent chain. Numbers in names are those of the source.
B1: mutant human Group IIA PLA2: recombinant double mutant G72K.T103K human Group IIA phospholipase A2, protein SEQ. ID. NO. 2, expressed in E. coli (protein)
chain: NLVNFHRLIKLTTGKEAALSYGFYGCHCGVGGRGSPKDATDRCCVTHDCCYKRLEKRGCGTKFLSYKFSNSKSRITCAKQDSCRSQLCECDKAAATCFARNKKTYNKKYQYYSNKHCRGSTPRC
B2: wild-type human Group IIA PLA2: wild-type human Group IIA 14 kDa phospholipase A2, comparator enzyme (protein, UniProt P14555 21-144, looked up)
Phospholipase A2, membrane …: B1 chain with L8M, K72G, K103T

Key:
[1] = tested on: S. aureus RN450 and two clinical isolates, strains 5A (MRSA) and 18; assay: Bactericidal activity toward S. aureus RN450 and clinical isolates 5A and 18 in 70% pooled human sera; type: cell-based, Staphylococcus aureus; details: FIGS. 4 and 5; each of several strains; laboratory medium and 70% human sera, 90 minutes
Protocol: S. aureus RN450 and two clinical isolates, strains 5A (MRSA) and 18 (10^7/ml were incubated with 1-500 ng/ml of each Group IIA PLA2 at 37° C. for 90 minutes in 70% (v/v) pooled human sera diluted in Hanks' balanced salts solution and buffered with 10 mM HEPES, pH7.4.

[2] = tested on: S. aureus; assay: Antibacterial activity by colony-forming ability of susceptible bacteria; type: cell-based, Staphylococcus aureus
Protocol: According to the present invention, the mutant human Group IIA PLA2 of the present invention is characterized by bactericidal activity against gram positive bacteria, such as S. aureus (see Example 3). Antibacterial activity of mutant human Group IIA PLA2 may be quantified by measuring the colony-forming ability of susceptible bacteria that have been incubated with or without increasing amounts of mutant human Group IIA PLA2. Typically, a suspension of 10^6 bacteria/ml (e.g., S. aureus) is exposed to 1-500 ng/ml of mutant human Group IIA PLA2 for 60-90 minutes at 37° C., after which the cells are mixed with molten agar and plated. After overnight growth, bacterial colonies are compared between mutant Group IIA PLA2-treated and untreated cultures.

[3] = tested on: S. aureus RN450; assay: Bactericidal activity toward S. aureus RN450 in RPMI-1640 medium; type: cell-based, Staphylococcus aureus; details: FIG. 4, 10^6/ml, 1-500 ng/ml, 60 minutes
Protocol: The bactericidal activity of wild-type human and recombinant mutant human and rabbit Group IIA PLA2s against Staphylococcus aureus 52A (10^6 per ml)was determined. S. aureus was incubated with 0.01-100 nM of each Group IIA PLA2 and incubated at 37° C. for 2 hours in RPMI-1640 medium containing 10 mM HEPES, pH 7.4 and 1% (w/v) albumin. After incubation, bacterial viability was determined by measuring the colony forming ability of the bacteria in trypticase soy agar. Bacterial colonies were enumerated after 18-24 hours at 37° C. The results are expressed as the percentage of the colony forming units (CFU) of the original bacterial inoculum (i.e. at T=0).
S. aureus RN450 (10^6/ml) was incubated with 1-500 ng/ml of each Group IIA PLA2 at 37° C. for 60 minutes in RPMI-1640 medium containing 10 mM HEPES, pH 7.4 and 1% (w/v) albumin. Bacterial viability was determined as in Example 3.

[4] = tested on: Reynolds strain of Staphylococcus aureus; assay: Efficacy of administered mutant PLA2 against S. aureus infection in vivo (i.p. infection in mice); parameters: species or system CD/1 mice
Protocol: Bacteria: Reynolds strain of Staphylococcus aureus (encapsulated; grown overnight on Columbia agar to maximize encapsulation as in experiments shown in Example 6).
Administration of bacteria: 2×10^7/ml in 0.2 ml of sterile RPMI supplemented with 10 mM HEPES (pH 7.4) and 1% bovine serum albumin. Intraperitoneal (i.p.) inoculation.
Adminstration of PLA2: 15 μg/0.2 ml of above medium i.p. approx. 10-15 min after inoculation of bacteria. Control animals received medium alone. Enzyme administered was Mutant [G72K.T103K] Group IIA PLA 2.
a) @ 30, 60, 120, and 240 min after infection, blood samples taken from tail vein from each of 4 animals in control and PLA2-treated groups. There were a total of 16 animals in each group; each animal was bled only once in this time period. Levels of bacteremia were assessed by measurement of bacterial CFU in blood.
b) @ 1 day after infection, 8 animals from each group were sacrificed. Blood was collected again to measure bacteremia and the peritoneal cavity was washed and inspected to look macroscopically for abscesses (none seen) and measure intraperitoneal bacteria by assay of CFU.
c) @ 6 days after infection, the remaining 8 animals from each group were sacrificed and infection in blood and peritoneal cavity was measured as above (still no abscesses seen). This animal model produces local and disseminated infection in control animals that is eventually self-limiting. The level of metastatic infection is greatest at approx. 6 days. In addition, kidneys were excised, weighed (no significant difference between animals within and between treatment groups) and homogenized to facilitate assay of bacterial CFU within infected kidney (i.e. representing metastatic infection).

[5] = tested on: Staphylococcus aureus; details: 100 ng/ml in biological fluids; 10^6 S. aureus cells/ml, incl. multi-drug resistant clinical isolates; cited from earlier work

Row | Molecule | activity compared with wild-type human Group IIA PLA2 [1] | activity compared with wild-type rabbit enzyme [1] | antibacterial activity relative to human WT homologue [2] [×] | antibacterial activity compared with wild-type human Group IIA PLA2 [3] | bactericidal activity compared with WT rabbit Group IIA PLA2 [3] | abscesses seen ([4]; 6 days after infection, controls two of 16) | treatment of S. aureus infection in vivo ([4]; Example 7) | S. aureus bacteremia (CFU in blood) ([4]; FIG. 10, 15 μg i.p., 30, 60, 120, 240 min after infection) | metastatic kidney infection caused by S. aureus (CFU in kidney) ([4]; FIG. 11, 15 μg i.p., 6 days after infection) | S. aureus cells killed [5]
1 | B1 | significantly more active | essentially as active | 10 | increased antibacterial activity | nearly equivalent | none were seen | effective | reduces | reduces | –
2 | B2 | – | – | – | – | – | – | – | – | – | greater than 99%
